We go through five molecules from patent US6846625B1, “Method for identifying validated target and assay combination for drug development” (priority 1998, dated 2005).

Ends that are not written are not given here.

In test [1] the test system is E. coli JM109/pSC/pC^3844. The test is described as follows: Lethal i.p. infection in mice, induced in vivo expression of Pro-3. Also noted: species or system CD-1 female mice. Particulars: E. coli JM109/pSC/pC^3844 10^8 cfu/mouse i.p., i.p. ×2. The text has this: Intracellularly expressed Pro-3 was expected to bind to and inhibit a specific essential cellular target in a manner similar to that of an antimicrobial drug. Pro-3 was expected to cure the infection when its expression was induced in an animal model of bacterial infection. An established animal infection model was used to test this concept (C. O. Onyeji et al., Antimicrob. Agents Chemother. 38:1112-1117 (1994)).
Eight groups of CD-1 female mice (5 mice per group, Charles River Laboratories; Wilmington, Mass.) weighing 20-24 g were used in this experiment. The inoculum was prepared from E. coli JM109/pSC/pC^3844 which was cultured at 37° C. for 17 hr in Luria-Bertani broth containing spectinomycin and chloramphenicol, and then 100 μl of the culture was diluted to 1 ml with medium for reading OD at 600 nm (0.2403, the medium as blank). The turbidity of a 0.5 McFarland standard is equivalent to OD6000.1, or 10^8 cfu/ml. Then 3×10^9 cfu (colony-forming units) of E. coli JM109/pSC/pC^3844 (1.25 ml) from the overnight culture were diluted to 15 ml with 0.01 M phosphate buffered saline (Sigma P-0261) containing 8% hog gastric mucin (Sigma M-2378), 100 μg/ml spectinomycin and 68 μg/ml chloramphenicol. Each mouse of groups 1 through 4 was injected with 0.5 ml of the inoculum intraperitoneally (i.p.), equivalent to 1×10^8 cfu/mouse (lethal dose).
(§1) One and four hours after the inoculation, groups 1 and 5 animals received a saline injection i.p. at 10 ml/kg; groups 2, 3 and 4 animals received i.p. injections of anhydrotetracycline at 2, 1 and 0.5 mg/kg (diluted in saline), respectively; groups 6, 7 and 8 received i.p. injections of anhydrotetracycline at 2, 1 and 0.5 mg/kg, respectively. The injection volume for all the animals was 10 ml/kg.

For a further test, the system named is E. coli pPROTet-GST. The test is described as follows: Lethal i.p. infection in mice, vector control strain. Format: in vivo, CD-1 female mice. The note with it: E. coli pPROTet-GST 10^8 cfu/mouse i.p., i.p. ×2. The method, then:
Groups 5 through 8 served as vector control. The control inoculum was prepared from E. coli pPROTet-GST whose vector carries a gene encoding glutathione S-transferase, but no Pro-3 peptide. E. coli pPROTet-GST was cultured at 37° C. for 17 hr in Luria-Bertani broth containing spectinomycin and chloramphenicol, and then 100 μl of the culture were diluted to 1 ml with the medium for reading OD at 600 nm (0.2858, the medium as blank). Then 3×10^9 cfu (1.05 ml) from the overnight culture were diluted to 15 ml with 0.01 M phosphate buffered saline containing 8% hog gastic mucin. Each mouse of groups 5 through 8 was injected (i.p.) with E. coli pPROTet-GST inocula equivalent to 1×10^8 cfu/mouse (lethal dose).
as §1

In the next test the target is T1, E. coli ProRS (Escherichia coli, UniProt P16659).
T1 construct: made in house
T1 sequence (P16659 whole entry, looked up): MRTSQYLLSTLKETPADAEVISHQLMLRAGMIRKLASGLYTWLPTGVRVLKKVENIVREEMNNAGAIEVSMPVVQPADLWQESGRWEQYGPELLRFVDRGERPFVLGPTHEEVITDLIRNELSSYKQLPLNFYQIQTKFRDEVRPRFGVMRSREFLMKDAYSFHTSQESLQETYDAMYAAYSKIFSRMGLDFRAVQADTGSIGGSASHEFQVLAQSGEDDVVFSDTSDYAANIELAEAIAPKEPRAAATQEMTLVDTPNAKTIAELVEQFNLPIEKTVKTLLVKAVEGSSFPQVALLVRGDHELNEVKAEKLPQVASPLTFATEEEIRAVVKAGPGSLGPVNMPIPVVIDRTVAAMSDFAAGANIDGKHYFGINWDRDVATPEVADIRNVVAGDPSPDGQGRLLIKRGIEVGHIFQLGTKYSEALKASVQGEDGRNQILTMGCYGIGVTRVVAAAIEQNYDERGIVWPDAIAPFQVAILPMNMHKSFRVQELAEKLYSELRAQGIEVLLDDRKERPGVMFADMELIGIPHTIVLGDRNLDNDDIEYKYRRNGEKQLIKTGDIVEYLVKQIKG
The test is described as follows: E. coli ProRS tRNA charging (aminoacylation) inhibition. Format: biochemical. The note with it: read-out: K, (inhibition of E. coli ProRS aminoacylation activity). The text has this: In order to produce pure protein for peptide selection, the E. coli ProRS gene (Genbank accession number: M97858) was PCR amplified and cloned into the pET-20b vector (Novagen) using standard molecular cloning protocols (J. Sambrook, et al., Molecular Cloning: A Laboratory Manual, 2nd edition, Cold Spring Harbor Laboratory Press, 1989). The overexpressed ProRS was purified sequentially on Q- and SP-Sepharose columns. […] Thirteen clones from phages that were identified as having a high affinity to ProRS were sequenced. These clones share 4 different sequences, 3 of which are closely related (Table l). See Example 4 of WO98/19162, published 7 May 1998.
The peptide having sequence number 3 was synthesized and tested for inhibition of tRNA charging activity of E. coli ProRS. […] This peptide is called Pro-3 (also, Pro3).
The expressed Pro-3/GST fusion protein was purified on a glutathione-agarose affinity column according to a procedure provided by Pharmacia (see, cg., procedures manual from Pharmacia P-L Biochemicals, Inc.: GST Gene Fusion System, regarding use of pGEX expression vectors and glutathione-S-transferase fusion proteins, 1993). The N-terminal sequence of the purified protein was determined by Edman cycles and confirmed to have the expected Pro-3 peptide sequence. […]

In test [2] the test system is E. coli JM109/pSC/pC^3844. Briefly: E. coli growth in culture upon regulated expression of Pro-3/GST. Format: cell-based, Escherichia coli. The note with it: anhydrotetracycline induction, compared with GST alone. As to the method: Overnight cultures of JM109/pSC cells harboring pC^3844 (JM109/pSC/pC^3844), or pPROTet-GST (same as pC^3844 without the Pro-3 peptide sequence) were diluted 100-fold in fresh LB medium containing 34 μg/mL chloramphenicol and 50 μg/mL spectinomycin. After 2 hours growth at 37° C., 100 μL aliquots of each of these bacterial cultures were transferred to wells of a 96-well microtiter plate, with or without 10 ng of anhydrotetracycline dissolved in 1 μL ethanol. The growth of bacterial cultures, which were constantly under agitation, was monitored with a plate reader (SpectraMAX-250, Molecular Devices).

For another test, the target named is S. aureus MetRS (Staphylococcus aureus, UniProt Q5HII6). Briefly: S. aureus MetRS aminoacylation (functional charging) assay. It counts as biochemical. The note with it: methionine varied, ATP held at 1.5 mM; read-out: Kl (methionine). The method, then: The activity of S. aureus MetRS was monitored by the aminoacylation reaction. The enzyme was diluted in 50 mM HEPES, pH 7.55, 5 mM DTT and 0.01% BSA. A typical 50 μL reaction mixture contained 30 mM HEPES, pH 7.5, 10 mM MgCl2, 30 mM KCl, 90 μM E. coli tRNA, 2 mM ATP and 5 μM [^3H]-methionine (10 Ci/mmol). The reaction was initiated by addition of enzyme at 25° C. At 4 different timepoints, 10 μL of the reaction was quenched into 150 μL cold 5% TCA on a Millipore filter plate. The filter plate is then washed three times with cold 5% TCA followed by water and then ethanol. The filter plate was dried before addition of 100 μL Packard Microscint-20 and counted on a Packard Top-Count microplate scintillation counter.
Chain of S. aureus MetRS (Q5HII6 whole entry): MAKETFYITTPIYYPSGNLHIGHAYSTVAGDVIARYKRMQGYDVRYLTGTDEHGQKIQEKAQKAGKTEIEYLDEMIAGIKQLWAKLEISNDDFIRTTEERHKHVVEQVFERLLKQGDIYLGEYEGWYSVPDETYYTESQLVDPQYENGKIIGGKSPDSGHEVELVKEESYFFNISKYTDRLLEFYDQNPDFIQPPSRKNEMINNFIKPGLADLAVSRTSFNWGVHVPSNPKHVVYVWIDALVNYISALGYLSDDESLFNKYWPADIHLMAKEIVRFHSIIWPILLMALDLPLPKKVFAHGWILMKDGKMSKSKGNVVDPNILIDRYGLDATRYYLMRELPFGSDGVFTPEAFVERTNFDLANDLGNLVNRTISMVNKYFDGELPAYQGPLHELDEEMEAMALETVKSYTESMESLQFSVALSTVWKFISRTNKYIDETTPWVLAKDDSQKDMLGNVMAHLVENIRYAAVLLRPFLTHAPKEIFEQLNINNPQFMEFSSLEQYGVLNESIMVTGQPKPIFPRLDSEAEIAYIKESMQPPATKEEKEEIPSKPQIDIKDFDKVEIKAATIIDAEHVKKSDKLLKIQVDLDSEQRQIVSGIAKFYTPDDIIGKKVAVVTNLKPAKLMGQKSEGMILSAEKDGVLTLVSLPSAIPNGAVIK
Inhibition studies were performed for the peptides against two of the substrates, ATP and methionine. This was done at varying concentrations of peptides by holding the concentration of one substrate at its K value (1.5 mM for ATP and 5 μM for methionine), while varying the other substrate concentration around its Km value. The initial velocity data obtained were then analyzed using GraFit.

The target in test [3] is E. coli prolyl-tRNA synthetase (ProRS) (Escherichia coli) (UniProt P16659). Briefly: inhibition of ProRS enzyme activity, purified fusion protein.
The target is the same in test [4]. The test is described as follows: cell-based or functional assay.
Test [5] deals with T2, E. coli prolyl-tRNA synthetase (ProRS) (Escherichia coli), P16659.
T2 chain: T1 sequence (P16659 whole entry, looked up)
Briefly: inhibition of tRNA charging activity, synthetic peptide.

As for `Cc1c2c(c(O)c3c(O)cccc13)C(=O)[C@]1(O)C(=O)C(C(N)=O)=C(O)[C@@H](N(C)C)[C@@H]1C2` [Anhydrotetracycline, anhydrotetracycline], the “Survival (7 days)” value in test [1] (inducer 0.5 mg/kg) was 5/5; in test [1] (inducer 1 mg/kg), 5/5; in test [1] (inducer 2 mg/kg), 5/5; in the test with E. coli pPROTet-GST (inducer 0.5 mg/kg) it was 0/5; with E. coli pPROTet-GST (inducer 1 mg/kg), 0/5; in the test with E. coli pPROTet-GST (inducer 2 mg/kg) it was 0/5.
“Pro-3/GST: Pro-3 peptide fused through a 4-amino acid linker to glutathione S-transferase (GST), expressed from pC^3844 (SREWHFWRDYNPTSREGGG; also: fused to GST through a linker, GST left off)”: the Ki in the test with E. coli ProRS amounted to 180 nM. The “E. coli growth (OD600) upon expression” value in test [2] is given as “inhibits E. coli growth”.
Turning to MWDLPYIWSRPV [JT02], the Ki on S. aureus MetRS turned out to be 1700 nM.

B1: Pro-3/GST fusion protein (peptide)
chain: SREWHFWRDYNPTSREGGG
In turn, B1 displayed a Ki in test [3] of 180 nM. For the same molecule, in test [4], the Charged tRNA (tRNA-Pro) in cells, +Inducer amounted to 23%; the Charged tRNA (tRNA-Pro) in cells, -Inducer is 70%; the Survival (7 days), mice infected with E. coli JM109/pSC/pC3844, anhydrotetracycline 0.5 mg/kg i.p. x2 was 5 of 5 mice; the Survival (7 days), mice infected with E. coli JM109/pSC/pC3844, anhydrotetracycline 1 mg/kg i.p. x2 was 5 of 5 mice. In test [4], the Survival (7 days), mice infected with E. coli JM109/pSC/pC3844, anhydrotetracycline 2 mg/kg i.p. x2 was 5 of 5 mice and the Survival (7 days), mice infected with E. coli JM109/pSC/pC3844, saline (no induction) is 0 of 5 mice.

B2: Pro-3 peptide (…) (peptide)
peptide: SREWHFWRDYNPTSR
modifications: not checked
B2 gave a Ki in test [5] of 300 nM.
